Source: patent US5824484, “RXR homodimer formation” (La Jolla Cancer Research Foundation)

Assays:
RXR alpha homodimer [1] = biological target: T1, RXR alpha homodimer (UniProt P19793 P19793:1-462); assay: EMSA; with 9-cis-RA (effect from 1e-9 M, optimal 1e-8 M); little binding without ligand; also induced by SR11217 and SR11237; conditions: chain copies: 2 (stated); label: 32P
Procedure: (§1) (a) In vitro synthesized RXRα was incubated either with (+) or without (−) indicated hormones (10^-7M 9-cis-RA; 10^-6M RA; 10^-6M T_3) in the presence or absence of in vitro synthesized TRα or RARβ for 30 min at room temperature. After this preincubation, the reaction mixtures were analyzed by gel retardation assay using ^32P-labeled TREpal as probe. Lane 1 represents the nonspecific binding of unprogrammed reticulocyte lysate. Open triangles indicate the nonspecific complex observed with unprogrammed reticulocyte lysate. Solid triangles indicate the specific TRα-RXRα heterodimer binding. Arrows indicate specific RXRα homodimer binding. The RXRα/RARβ heterodimer migrates at the same position as the RXRα homodimer. For comparison, the effect of 9-cis-RA on RARβ binding is shown.

RXR alpha homodimer [2] = biological target: T1, RXR alpha homodimer; assay: EMSA; with 9-cis-RA; conditions: chain copies: 2 (stated); label: 32P
Procedure: as §1
(§2) FIGS. 4a and 4c show the response element specific binding of RXR homodimer. The effect of 9-cis-RA on RXR binding on RA specific response elements (a), T_3 specific response elements (b), or estrogen specific response element (c) was analyzed by gel retardation assays as described in FIG. 1a. For comparison, the binding of RXR/RAR heterodimer (a), RXR/TR heterodimer (b) or estrogen receptor (c) is shown. Open triangles indicate the nonspecific binding of unprogrammed reticulocyte lysate. Solid triangle indicates the RAR/RXR heterodimer complex (a), TR/RXR heterodimer complex (b) or ER complexes (c). […]

RXR alpha homodimer [3] = biological target: T1, RXR alpha homodimer; assay: EMSA; with or without 9-cis-RA; conditions: chain copies: 2 (stated); label: 32P
Procedure: as §1, §2

[4] = biological target: TR alpha/RXR alpha heterodimer (UniProt P10827-2;P19793 P10827-2:1-410,P19793:1-462); assay: EMSA; conditions: label: 32P
Chain of TR alpha/RXR alpha heterodimer (P10827 other isoform, or with tags, fused parts or gaps, chain 1 of 2): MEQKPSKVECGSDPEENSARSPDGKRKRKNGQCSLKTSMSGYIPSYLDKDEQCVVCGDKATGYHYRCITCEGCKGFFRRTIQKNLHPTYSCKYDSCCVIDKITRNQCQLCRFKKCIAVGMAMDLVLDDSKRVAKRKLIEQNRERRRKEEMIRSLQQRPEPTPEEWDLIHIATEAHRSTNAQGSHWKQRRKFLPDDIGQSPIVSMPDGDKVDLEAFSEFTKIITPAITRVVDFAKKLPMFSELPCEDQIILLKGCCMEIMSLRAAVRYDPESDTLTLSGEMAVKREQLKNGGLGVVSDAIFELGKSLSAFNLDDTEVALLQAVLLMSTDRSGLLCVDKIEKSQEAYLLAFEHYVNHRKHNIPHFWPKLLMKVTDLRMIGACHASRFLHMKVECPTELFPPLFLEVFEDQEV
Chain of TR alpha/RXR alpha heterodimer (P19793 whole entry, chain 2 of 2): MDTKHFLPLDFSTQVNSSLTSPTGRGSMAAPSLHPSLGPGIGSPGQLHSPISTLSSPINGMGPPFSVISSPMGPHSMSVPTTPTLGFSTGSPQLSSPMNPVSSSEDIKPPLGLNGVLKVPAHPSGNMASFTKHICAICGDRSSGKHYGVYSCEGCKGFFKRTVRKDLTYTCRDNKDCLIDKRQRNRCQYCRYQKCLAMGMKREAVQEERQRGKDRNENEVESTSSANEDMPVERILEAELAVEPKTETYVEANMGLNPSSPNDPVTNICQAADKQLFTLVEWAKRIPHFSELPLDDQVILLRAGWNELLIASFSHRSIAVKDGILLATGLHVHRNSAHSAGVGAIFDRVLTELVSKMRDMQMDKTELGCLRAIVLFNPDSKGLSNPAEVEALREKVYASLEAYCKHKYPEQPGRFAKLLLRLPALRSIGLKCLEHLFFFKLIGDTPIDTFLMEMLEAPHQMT
Procedure: as §1, §2

Estrogen receptor = Estrogen receptor (UniProt P03372 P03372:1-595); assay: EMSA; ER complex shown for comparison; conditions: chain copies: 2 (inferred); label: 32P
Chain of Estrogen receptor (P03372 whole entry, one chain of several): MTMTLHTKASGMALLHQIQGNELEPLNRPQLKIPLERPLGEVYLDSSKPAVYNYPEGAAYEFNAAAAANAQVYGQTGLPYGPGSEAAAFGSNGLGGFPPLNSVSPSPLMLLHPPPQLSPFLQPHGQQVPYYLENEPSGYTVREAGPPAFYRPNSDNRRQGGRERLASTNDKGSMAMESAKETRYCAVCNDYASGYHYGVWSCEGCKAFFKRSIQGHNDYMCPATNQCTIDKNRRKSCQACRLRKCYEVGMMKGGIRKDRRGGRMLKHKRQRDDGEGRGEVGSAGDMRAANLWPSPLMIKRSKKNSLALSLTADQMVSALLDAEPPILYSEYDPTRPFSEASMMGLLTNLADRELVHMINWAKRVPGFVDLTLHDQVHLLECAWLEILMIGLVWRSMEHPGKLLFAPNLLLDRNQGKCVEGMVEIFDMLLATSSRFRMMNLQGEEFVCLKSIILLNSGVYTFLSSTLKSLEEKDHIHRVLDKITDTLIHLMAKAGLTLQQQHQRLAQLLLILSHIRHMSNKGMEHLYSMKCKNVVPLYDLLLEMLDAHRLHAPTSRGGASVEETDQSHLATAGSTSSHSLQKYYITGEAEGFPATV
Procedure: as §1, §2

RXR alpha homodimer [5] = biological target: T1, RXR alpha homodimer; assay: EMSA; strong with 9-cis-RA, lesser with 1e-6 M RA; conditions: chain copies: 2 (stated); label: 32P
Procedure: as §1
(§3) (b) The effect of 9-cis-RA on RXR homodimer binding of ApoAI-RARE or CRBPII-RARE was analyzed essentially as described in FIG. 1a. Lane 1 represents the nonspecific binding of unprogrammed reticulocyte lysate, which are indicated by the open triangles. Solid triangles indicate the RAR/RXR heterodimer complex. Arrows indicate the specific RXR binding complex.
(§4) Gel retardation assays using in vitro synthesized receptor protein are described in the FIG. 1 legend. The following oligonucleotides and their complements were used as probes in FIGS. 3 and 4.

RAR beta = biological target: T2, RAR beta (UniProt P10826-2 P10826-2:1-448); assay: EMSA; RAR homodimer not induced by 9-cis-RA; conditions: label: 32P
T2 sequence: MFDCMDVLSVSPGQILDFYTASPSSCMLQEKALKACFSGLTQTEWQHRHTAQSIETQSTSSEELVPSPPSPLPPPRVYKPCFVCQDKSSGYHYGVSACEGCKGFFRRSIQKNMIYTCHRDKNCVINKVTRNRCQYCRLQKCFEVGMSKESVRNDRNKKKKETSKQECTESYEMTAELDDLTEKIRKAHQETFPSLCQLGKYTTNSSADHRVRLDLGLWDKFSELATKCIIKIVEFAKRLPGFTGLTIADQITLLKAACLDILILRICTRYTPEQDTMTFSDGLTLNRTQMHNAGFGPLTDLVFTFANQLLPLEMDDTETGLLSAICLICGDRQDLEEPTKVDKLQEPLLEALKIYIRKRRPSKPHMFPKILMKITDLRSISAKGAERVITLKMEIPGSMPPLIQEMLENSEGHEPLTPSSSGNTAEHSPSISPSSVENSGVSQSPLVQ
Procedure: as §1, §3, §4

RXR alpha homodimer [6] = biological target: T1, RXR alpha homodimer; assay: EMSA; with 9-cis-RA; complex slower than heterodimer; reduced when RAR present; conditions: chain copies: 2 (stated); label: 32P
Procedure: as §1, §3, §4

T1 sequence (P19793 whole entry, one chain of several): as the sequence (P19793 whole entry, chain 2 of 2) above

B1: TREpal (dsDNA)
DNA 1: GATCTCAGGTCATGACCTGAGATC
DNA 2: GATCTCAGGTCATGACCTGAGATC
binding result (RXR alpha homodimer [1]): binds

B2: CRBPI-RARE (dsDNA)
DNA 1: GATCCAGGTCAAAAAGTCAGGATC
DNA 2: GATCCTGACTTTTTGACCTGGATC
binding result (RXR alpha homodimer [2]): no binding

B3: DR-5 (dsDNA)
DNA 1: GATCTCAGGTCATCCTCAGGTCAGATC
DNA 2: GATCTGACCTGAGGATGACCTGAGATC
binding result (RXR alpha homodimer [2]): no binding

B4: MHC-TRE (dsDNA)
DNA 1: GATCCTGGAGGTGACAGGAGGACAGCGATC
DNA 2: GATCGCTGTCCTCCTGTCACCTCCAGGATC
binding result (RXR alpha homodimer [3]): no binding
binding result [4]: binds

B5: ME-TRE (dsDNA)
DNA 1: GATCCAGGACGTTGGGGTTAGGGGAGGACAGTGGGATC
DNA 2: GATCCCACTGTCCTCCCCTAACCCCAACGTCCTGGATC
binding result (RXR alpha homodimer [3]): no binding
binding result [4]: binds

B6: ERE (dsDNA)
DNA 1: GATCTCAGGTCACTGTGACCTGAGATC
DNA 2: GATCTCAGGTCACAGTGACCTGAGATC
binding result (Estrogen receptor): binds

B7: ApoAI-RARE (dsDNA)
DNA 1: GATCAGGGCAGGGGTCAAGGGTTCAGTGATC
DNA 2: GATCACTGAACCCTTGACCCCTGCCCTGATC
binding result (RXR alpha homodimer [5]): binds
binding result (RAR beta): no binding

B8: CRBPII-RARE (dsDNA)
DNA 1: GATCCAGGTCACAGGTCACAGGTCACAGTTCAAGATC
DNA 2: GATCTTGAACTGTGACCTGTGACCTGTGACCTGGATC
binding result (RXR alpha homodimer [6]): binds
